# T1: MiEH2 (Mangifera indica, UniProt A0A1U9ZCB5)
# T1 sequence (A0A1U9ZCB5 1-318): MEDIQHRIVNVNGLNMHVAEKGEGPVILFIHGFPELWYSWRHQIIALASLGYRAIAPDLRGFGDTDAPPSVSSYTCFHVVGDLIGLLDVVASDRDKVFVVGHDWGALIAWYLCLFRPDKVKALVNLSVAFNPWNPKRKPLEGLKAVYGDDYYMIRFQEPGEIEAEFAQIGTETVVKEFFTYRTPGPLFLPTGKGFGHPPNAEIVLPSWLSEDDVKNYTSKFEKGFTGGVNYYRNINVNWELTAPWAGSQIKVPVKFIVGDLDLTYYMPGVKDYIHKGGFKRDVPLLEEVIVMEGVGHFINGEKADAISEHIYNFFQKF
# Key:
# MiEH2 [1] = target: T1, MiEH2; experiment: MiEH2 activity assay and enzyme kinetics with epoxide substrates (HRMS); assay type: biochemical; settings: for product formation by MiEH2 with substrate (HRMS extracted ion chromatogram): 200 μM substrate, pH 7.0, 30° C., FIG. 3; for Vmax: recombinant MiEH2, substrate kinetics
# Method: (§1) Similar activity assays were carried out with protein expressed from empty vector for confirmation of EH2 activity. Optimum pH was determined by calculating activity at varied range of pH in phosphate citrate buffer at 30° C., whereas temperature optima was determined by calculating MiEH2 activity in phosphate citrate buffer pH 7 at various temperatures. After incubation and catalytic activity of EH 2, products were extracted in chloroform:methanol (2:1); completely dried in vacuum evaporator and reconstituted in the methanol. HRMS analysis carried out by accurate mass (molecular ion) identification. […] Extracted compounds from CSO and TSO assay reactions were separated by water (A):methanol (B) solvent gradient, 0-1 min 80% (A)/20% (B); 1-2 min 60% (A)/40% (B); 2-4 min 40% (A)/60% (B); 4-11 min 20% (A)/80% (B); 11-16 min 0% (A)/100% (B), hold for 2 min and again back to 80% (A)/20% (B) in 3 min with 2 min hold at flow rate 500 μl min^−1. […] Quantitative analysis of CSO and TSO assay products was done by plotting standard graph of product standards. Full scans for both programs were acquired on positive ion mode with AGC target value of 1E6, resolution of 70,000 at scan range 100-500 m/z, and maximum ion injection time (IT) of 250 ms.
# [2] = system: ethylene treated mango fruits; experiment: Transient over expression of SEQ ID No. 1 (MiEH2) in mango fruits via agroinfiltration, lactone content by GC-FID; assay type: in vivo, Mangifera indica
# Method: The full length sequence of MiEH2, i.e. SEQ ID No. 1 was cloned in a pBI121 plant expression vector between CaMV 35S promoter and GusA gene. Terminal primers were designed (Table 1A) to clone genes at BamHI restriction site. Resulted correct oriented construct pBI121+SEQ ID No. 1 and pBI121 empty vector as control were transformed in the Agrobacterium GV3101 strain for transient expression studies. Separate Agrobacterium cultures (5 mL) were initiated from individual colonies in YEB medium having appropriate antibiotics and incubated overnight at 28° C. This culture was transferred to 50 mL induction medium comprising 0.5% beef extract, 0.1% yeast extract, 0.5% peptone, 0.5% sucrose, 2 mM MgSO4, […] acetosyringone, 10 mM MES, pH 5.6, having appropriate antibiotics, and again grown overnight. Cultures were recovered by centrifugation on the next day, resuspended in infiltration medium (10 mM MgCl2, 10 mM MES, […] acetosyringone, pH 5.6) till optical density reached 1.0. This suspension was again incubated at 28° C. with gentle agitation for 2 hrs.
# Over expression studies for EH2 were carried out by Agrobacterium mediated infiltration in ethylene treated mango fruits at 3DAH stage by using hypodermic syringe. Equal volumes of said constructs i.e. pBI121+MiEH2 and pBI121 empty vector construct were used for infiltration in two different halves of same mango fruit separated by fruit stone. […] Thus control (empty vector) and test over expressions were carried out in same fruit to avoid error in lactone content analysis. Five distinct mango fruits were used for overexpression study of MiEH2. Infiltrated fruits were kept at 25° C. for 2 days in 12 hr dark and 12 hr light conditions, after 2 days; part from each fruit halves was checked by Gus staining (Kapila et al. 1997; Spolaore et al. 2001) to confirm expression of MiEH2 under 35S promoter along with GusA, remaining part of fruit pulp stored in −80° C. until used for lactone analysis by gas chromatography. […] Lactones were analysed from control and test region of fruits. A total of 8 lactones viz. γ-butyrolactone, δ-valerolactone, γ-hexalactone, δ-hexalactone, γ-octalactone, γ-octalactone, γ-decalactone and δ-decalactone were detected from all tissues in GC-MS analysis.
# GC-MSD and GC-FID analysis for lactones was carried out using a 7890B GC system Agilent Technologies coupled with Agilent 5977A MSD (Agilent technologies, CA, USA). […] To understand effect of gene over expression by transient expression on lactone biosynthesis, qualitative and quantitative analysis for lactones alone was carried out in the present study. […] Absolute quantification was done using internal standard by normalizing concentrations of all the lactones with that of known concentration of nonyl acetate.
# [3] = substrate: c1ccc([C@H]2O[C@H]2c2ccccc2)cc1; experiment: MiEH2 activity assay and enzyme kinetics with epoxide substrates (HRMS); assay type: biochemical, Mangifera indica; settings: other: recombinant MiEH2, substrate kinetics; pH 7.0
# Method: as §1
# [4] = substrate: c1ccc([C@H]2O[C@@H]2c2ccccc2)cc1; experiment: as above; assay type: biochemical, Mangifera indica; settings: other: recombinant MiEH2, substrate kinetics; pH 7.0
# Method: as §1
# MiEH2 [5] = target: T1, MiEH2; experiment: Optimum pH and temperature of MiEH2 activity; assay type: biochemical
# Method: Similar activity assays were carried out with protein expressed from empty vector for confirmation of EH2 activity. Optimum pH was determined by calculating activity at varied range of pH in phosphate citrate buffer at 30° C., whereas temperature optima was determined by calculating MiEH2 activity in phosphate citrate buffer pH 7 at various temperatures. After incubation and catalytic activity of EH 2, products were extracted in chloroform:methanol (2:1); completely dried in vacuum evaporator and reconstituted in the methanol. HRMS analysis carried out by accurate mass (molecular ion) identification. Identified products from assay reaction were confirmed with mass and retention time indices of authentic standards R,R hydrobenzoin and meso hydro benzoin. Extracted compounds from CSO and TSO assay reactions were separated by water (A):methanol (B) solvent gradient, 0-1 min 80% (A)/20% (B); 1-2 min 60% (A)/40% (B); 2-4 min 40% (A)/60% (B); 4-11 min 20% (A)/80% (B); 11-16 min 0% (A)/100% (B), hold for 2 min and again back to 80% (A)/20% (B) in 3 min with 2 min hold at flow rate 500 μl min^−1. […] Quantitative analysis of CSO and TSO assay products was done by plotting standard graph of product standards. Full scans for both programs were acquired on positive ion mode with AGC target value of 1E6, resolution of 70,000 at scan range 100-500 m/z, and maximum ion injection time (IT) of 250 ms.
# [6] = pBI121+SEQ ID No. 1 vs empty pBI121 vector in same fruit, 2 days post infiltration
molecule,measurement,setting,value
"c1ccc([C@H]2O[C@@H]2c2ccccc2)cc1 (relative stereo) [TSO, trans-stilbene oxide]",product formation by MiEH2 with substrate (HRMS extracted ion chromatogram),MiEH2 [1],product formation
same,Vmax,MiEH2 [1],TSO- 1055.55 ± 55.55 μM min^−1mg^−1
"c1ccc([C@H]2O[C@H]2c2ccccc2)cc1 [CSO, cis-stilbene oxide]",product formation by MiEH2 with substrate (HRMS extracted ion chromatogram),MiEH2 [1],product formation
same,Vmax,MiEH2 [1],CSO- 26.5252 ± 4.81 μM min^−1mg^−1
"SEQ ID No. 1: 957 bp polynucleotide encoding epoxide hydrolase 2, cloned in pBI121 plant expression vector, agroinfiltrated in mango (nucleic acid, cDNA, 957 bp polynucleotide encoding epoxide hydrolase 2, cloned in pBI121 plant expression vector, agroinfiltrated in mango) DNA: ATGGAAGATATACAGCACAGAATTGTGAATGTCAATGGCTTAAACATGCACGTGGCAGAGAAAGGCGAAGGTCCAGTCATTCTCTTCATTCACGGTTTTCCCGAACTGTGGTACTCCTGGCGGCATCAGATCATCGCCTTGGCTTCCCTCGGCTACCGAGCCATTGCTCCGGATCTACGTGGCTTCGGTGATACTGACGCGCCGCCGTCTGTCTCGAGTTACACGTGTTTCCACGTGGTGGGGGACCTCATTGGACTTCTCGACGTCGTTGCCTCTGATCGGGATAAGGTTTTCGTGGTGGGCCATGATTGGGGTGCTCTTATTGCTTGGTACTTGTGCTTGTTTAGACCGGATAAGGTCAAAGCTTTGGTCAACTTGAGTGTTGCGTTTAATCCCTGGAACCCCAAGAGGAAGCCACTTGAGGGTTTGAAAGCTGTTTATGGTGACGATTATTACATGATCAGATTTCAGGAGCCTGGTGAGATAGAAGCTGAGTTTGCCCAGATTGGTACTGAGACAGTTGTCAAGGAATTCTTTACATACAGGACACCTGGTCCTCTTTTTCTCCCTACAGGTAAAGGATTTGGACATCCCCCAAATGCTGAAATTGTCTTACCCTCTTGGCTATCAGAGGATGATGTTAAAAACTACACCAGCAAATTTGAGAAAGGCTTTACAGGAGGAGTGAACTATTACCGTAATATAAACGTGAACTGGGAACTTACAGCTCCTTGGGCCGGGAGTCAAATAAAGGTTCCTGTTAAGTTCATCGTGGGTGACCTGGACCTGACATATTATATGCCAGGAGTCAAGGATTACATACACAAAGGTGGGTTCAAGCGAGATGTGCCATTATTGGAAGAAGTGATTGTAATGGAAGGTGTAGGTCACTTCATTAATGGAGAAAAGGCTGATGCAATCAGTGAGCACATATACAACTTTTTTCAGAAGTTCTGA",lactone content on transient over expression,[2]; Alphonso mango,significant increase
same,increase in γ-hexalactone content compared to control tissue,[2]; [6],1.96 fold
same,increase in δ-hexalactone content compared to control tissue,[2]; [6],1.98 fold
same,increase in δ-valerolactone content compared to control tissue,[2]; [6],1.46 fold
MiEH2 (Mangifera indica) (protein) MEDIQHRIVNVNGLNMHVAEKGEGPVILFIHGFPELWYSWRHQIIALASLGYRAIAPDLRGFGDTDAPPSVSSYTCFHVVGDLIGLLDVVASDRDKVFVVGHDWGALIAWYLCLFRPDKVKALVNLSVAFNPWNPKRKPLEGLKAVYGDDYYMIRFQEPGEIEAEFAQIGTETVVKEFFTYRTPGPLFLPTGKGFGHPPNAEIVLPSWLSEDDVKNYTSKFEKGFTGGVNYYRNINVNWELTAPWAGSQIKVPVKFIVGDLDLTYYMPGVKDYIHKGGFKRDVPLLEEVIVMEGVGHFINGEKADAISEHIYNFFQKF,Km,[3],CSO- 0.165 ± 0.044 mM
same,Km,[4],TSO- 0.113 ± 0.003 mM
"MiEH2: recombinant epoxide hydrolase 2 polypeptide of Mangifera indica, 318 amino acids, 6×His tagged (protein, listed as Mangifera indica, 6xHis tag, recombinant epoxide hydrolase 2 polypeptide of Mangifera indica, 318 amino acids, 6×His tagged) MEDIQHRIVNVNGLNMHVAEKGEGPVILFIHGFPELWYSWRHQIIALASLGYRAIAPDLRGFGDTDAPPSVSSYTCFHVVGDLIGLLDVVASDRDKVFVVGHDWGALIAWYLCLFRPDKVKALVNLSVAFNPWNPKRKPLEGLKAVYGDDYYMIRFQEPGEIEAEFAQIGTETVVKEFFTYRTPGPLFLPTGKGFGHPPNAEIVLPSWLSEDDVKNYTSKFEKGFTGGVNYYRNINVNWELTAPWAGSQIKVPVKFIVGDLDLTYYMPGVKDYIHKGGFKRDVPLLEEVIVMEGVGHFINGEKADAISEHIYNFFQKF",Optimum temperature,"MiEH2 [5]; phosphate citrate buffer pH 7, various temperatures",45 °C
same,Optimum pH,"MiEH2 [5]; phosphate citrate buffer, 30° C., varied pH",8
